Test results from publication doi:10.1101/390674 (bioRxiv, 2018).

Target: ribosomal protein uL16 (Escherichia coli (strain MRE600), UniProt P0ADY7 1-136)
Assay: cryo-EM structure

B1: initiation factor 2, γ-isoform (natural protein)
chain: not shown
  binding result: binds
